Results on six molecules are retold here after publication PMC8188405, “When is an obscurin variant pathogenic? The impact of Arg4344Gln and Arg4444Trp variants on protein–protein interactions and protein stability” (Human Molecular Genetics, 2021).

B3: obscurin Ig58-Ig59 (wild type) (domain or fragment, human, UniProt Q5VST9 4337-4521, looked up)
chain: TAKNTVVRGLENVEALEGGEALFECQLSQPEVAAHTWLLDDEPVHTSENAEVVFFENGLRHLLLLKNLRPQDSCRVTFLAGDMVTSAFLTVRGWRLEILEPLKNAAVRAGAQACFTCTLSEAVPVGEASWYINGAAVQPDDSDWTVTADGSHHALLLRSAQPHHAGEVTFACRDAVASARLTVLG
modifications: labelled with the Monolith NT Protein Labeling kit RED-NHS (in the MST experiments only)
notes: obscurin, human, domains Ig58-Ig59, residues 4337-4521 based on NM_001098623/NP_001092093 (transcript variant B); The vector encodes His6 followed by a TEV cleavage site; no cleavage is described; The His6 tag holds the protein on Ni-NTA beads in the pull-downs; also called Ig58-Ig59WT; O5859; source: E. coli BL21-CodonPlus (DE3)-RIPL, purified (Ni-NTA); not shown: His6, N-terminal, kept

For test [1], the target named is B3. As to the kind of experiment: MST; obscurin Ig58-Ig59 labelled with RED-NHS (typically 50-100 nM); unlabelled PLN peptides diluted serially; PBS, 0.2% (v/v) Triton X-100, 2 mM DTT; Monolith NT.115; one-site binding model. To be noted: both partners purified.
The next test has as its target T1, titin Z8-Z9 (human, UniProt Q8WZ42-12 1698-1931).
T1 construct: titin, human, domains Z8-Z9, residues 1698 to 1931 based on NM_001267550/NP_001254479 (transcript variant IC); numbers count on: transcript variant IC; The vector encodes His6 followed by a TEV cleavage site; no cleavage is described; source: E. coli BL21-CodonPlus (DE3)-RIPL, purified (Ni-NTA)
T1 sequence (looked up): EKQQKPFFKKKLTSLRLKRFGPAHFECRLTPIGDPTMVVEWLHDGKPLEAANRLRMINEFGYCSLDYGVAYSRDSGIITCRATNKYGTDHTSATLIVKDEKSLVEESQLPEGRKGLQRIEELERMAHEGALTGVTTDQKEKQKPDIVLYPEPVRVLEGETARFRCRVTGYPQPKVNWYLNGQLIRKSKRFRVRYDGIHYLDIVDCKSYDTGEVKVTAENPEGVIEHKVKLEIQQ
Kind of test: MST; obscurin Ig58-Ig59 labelled with RED-NHS (typically 50-100 nM); unlabelled titin Z8-Z9 or ObB diluted serially; PBS, 2 mM DTT; Monolith NT.115; one-site binding model. Conditions: both partners purified.

B1: phospholamban transmembrane region PLN(23-52) (peptide, UniProt P26678 23-52, looked up)
chain: QARQKLQNLFINFCLILICLLLICIIVMLL
notes: phospholamban, human, transmembrane region, residues 23-52 (synthetic); source: synthetic peptide, bought: Pepscan
Consider B1, for which, in test [1], the Kd came to 58.5 µM. This lies in the double-digit micromolar range.

B2: human full-length phospholamban (peptide, UniProt P26678 1-52, looked up)
chain: MEKVQYLTRSAIRRASTIEMPQQARQKLQNLFINFCLILICLLLICIIVMLL
notes: phospholamban, human, full length (synthetic); Kept in buffer with Triton X-100; seen on gels as monomeric and pentameric bands, both of which were pulled down by Ig58-Ig59; also called PLN; source: synthetic peptide, bought: Pepscan
As to B2, the Kd in test [1] amounted to 18.9 µM.

Take B3: the equilibrium dissociation constant (Kd) with titin Z8-Z9 was determined as 7.8 µM.

B4: obscurin Ig58-Ig59 R4444W (domain or fragment, human, UniProt Q5VST9 4337-4521, looked up)
chain: TAKNTVVRGLENVEALEGGEALFECQLSQPEVAAHTWLLDDEPVHTSENAEVVFFENGLRHLLLLKNLRPQDSCRVTFLAGDMVTSAFLTVRGWRLEILEPLKNAAVWAGAQACFTCTLSEAVPVGEASWYINGAAVQPDDSDWTVTADGSHHALLLRSAQPHHAGEVTFACRDAVASARLTVLG
modifications: labelled with the Monolith NT Protein Labeling kit RED-NHS
notes: The variant occurs in the human population; also called R4444W variant; Arg4444Trp; source: E. coli BL21-CodonPlus (DE3)-RIPL, purified (Ni-NTA)
In the test with titin Z8-Z9, B4 displayed a dissociation constant (Kd) of 6.4 µM.

B5: obscurin Ig58-Ig59 R4344Q, A4484T double variant (domain or fragment, human, UniProt Q5VST9 4337-4521, looked up)
chain: TAKNTVVQGLENVEALEGGEALFECQLSQPEVAAHTWLLDDEPVHTSENAEVVFFENGLRHLLLLKNLRPQDSCRVTFLAGDMVTSAFLTVRGWRLEILEPLKNAAVRAGAQACFTCTLSEAVPVGEASWYINGAAVQPDDSDWTVTTDGSHHALLLRSAQPHHAGEVTFACRDAVASARLTVLG
modifications: labelled with the Monolith NT Protein Labeling kit RED-NHS
notes: source: E. coli BL21-CodonPlus (DE3)-RIPL, purified (Ni-NTA)
Take B5: the binding result with titin Z8-Z9 is on record as “binds”.

B6: obscurin Ig58-Ig59 R4344Q (domain or fragment, human, UniProt Q5VST9 4337-4521, looked up)
chain: TAKNTVVQGLENVEALEGGEALFECQLSQPEVAAHTWLLDDEPVHTSENAEVVFFENGLRHLLLLKNLRPQDSCRVTFLAGDMVTSAFLTVRGWRLEILEPLKNAAVRAGAQACFTCTLSEAVPVGEASWYINGAAVQPDDSDWTVTADGSHHALLLRSAQPHHAGEVTFACRDAVASARLTVLG
modifications: labelled with the Monolith NT Protein Labeling kit RED-NHS (in the MST experiments only)
notes: The variant occurs in the human population (found in up to 15% of African Americans); also called R4344Q variant; Arg4344Gln; source: E. coli BL21-CodonPlus (DE3)-RIPL, purified (Ni-NTA); not shown: His6, N-terminal, kept
In the test with titin Z8-Z9, B6 came in with a dissociation constant (Kd) of 6.6 µM.

Broadly, the Kd is the concentration at which binding is half-saturated. A lower Kd goes with a tighter complex.
